Patent US20100209945A1 (KOREA RESEARCH INSTITUTE OF BIOSCIENCE AND BIOTECHNOLOGY, published 2010)

How the values were obtained:
rabbit originated IgG [1] = target: T1, rabbit originated IgG; assay: SPR (Biacore 3000), hybrid of 1a on CM-5 chip, antibody at 100-1,000 nM, nonlinear regression with BIAevaluation
T1 construct: also called rabbit IgG; rabbit originated antibodies
Procedure: (§1) The antibody solutions containing HIgG1, rabbit IgG, MIgG3 antibodies at the concentrations of 100 nM, 250 nM, 500 nM and 1,000 nM were spilled on the chip surface-treated with the hybrid of 1a of Example <3-1> at the speed of 10 μl/minute to induce the binding reaction and the degree of binding was measured by surface plasmon resonance (SPR) using Biacore 3000.
(§2) As a result, SPR sensor gram values represented in dotted line were obtained. The values were analyzed by nonlinear regression using BIAevaluation software equipped in Biacore 3000 to draw a theoretical line graph (FIG. 4a). From the theoretical graph, kinetic coefficients shown in FIG. 4b were obtained and the overlapping of each dotted line on the line indicates the calculation was correct.

human originated HIgG1 [2] = target: T2, human originated HIgG1; assay: as above
T2 construct: also called human IgG1 (anti CRP) antibody
Procedure: as §1, §2

rabbit originated IgG [3] = target: T1, rabbit originated IgG; assay: SPR (Biacore 3000), hybrid of 1a on a CM-5 chip, antibody at 100 to 1000 nM, nonlinear regression with BIAevaluation
Procedure: as §1, §2

human originated HIgG1 [4] = target: T2, human originated HIgG1; assay: as above
Procedure: as §1, §2

BSA = target: T3, BSA (UniProt P02769 25-607); assay: SPR (Biacore 3000), peptide hybrid coupled to a dextran CM-5 Au chip; legend: chip of formula 1, paragraph 80: hybrid of 1a
T3 construct: Control protein; also called BSA (control)
T3 sequence (P02769 25-607 limits assumed): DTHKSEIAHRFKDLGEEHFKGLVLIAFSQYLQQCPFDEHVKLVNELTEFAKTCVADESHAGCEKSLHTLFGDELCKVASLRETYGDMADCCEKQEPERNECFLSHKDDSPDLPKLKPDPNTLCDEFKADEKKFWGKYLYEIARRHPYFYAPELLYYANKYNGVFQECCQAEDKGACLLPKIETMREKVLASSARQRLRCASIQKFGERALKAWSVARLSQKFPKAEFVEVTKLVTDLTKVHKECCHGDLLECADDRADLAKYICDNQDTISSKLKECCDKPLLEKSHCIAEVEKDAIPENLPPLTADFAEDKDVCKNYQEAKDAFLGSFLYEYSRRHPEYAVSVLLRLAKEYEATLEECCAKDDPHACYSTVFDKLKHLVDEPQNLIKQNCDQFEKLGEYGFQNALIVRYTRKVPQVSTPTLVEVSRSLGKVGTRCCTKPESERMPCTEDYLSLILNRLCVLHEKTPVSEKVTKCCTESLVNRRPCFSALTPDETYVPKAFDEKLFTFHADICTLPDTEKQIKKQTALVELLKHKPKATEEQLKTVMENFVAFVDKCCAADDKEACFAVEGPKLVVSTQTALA
Procedure: Antibody solutions containing different animal originated antibodies of Example 2 or 5 μg/ml of BSA (control) in PBS were spilled on the chip of Example <3-1> at the speed of 10 μl/minute to bind the antibody to the peptide hybrid on the surface of the chip. The binding capacity was measured by surface plasmon resonance (SPR) using Biacore 3000.

[5] = target: mouse originated antibody MIgG3; assay: SPR (Biacore 3000), hybrid of 1a on a CM-5 chip, antibody at 100 to 1000 nM, nonlinear regression with BIAevaluation; Kon and Koff printed as NA
Procedure: as §1, §2

B1: peptide hybrid for protein immobilization represented by formula 1a (H2N(CH2CH2O)2CH2CH2CO-EDDC*AWHLGELVWC*T-CONH2) (peptide)
peptide: EDDCAWHLGELVWCT
modifications: N-terminal H2N(CH2CH2O)2CH2CH2CO- (PEG linker); C-terminal amide (CONH2); disulfide bond between the two Cys (C*)
notes: Synthetic peptide-PEG hybrid; In the assays it was coupled through its terminal amine to a CM-5 chip, magnetic micro beads or a glass plate; also called hybrid of 1a; peptide hybrid of 1a
Rabbit originated IgG [1]
  Kd: 305 nM
Human originated HIgG1 [2]
  Kd: 85 nM
Rabbit originated IgG [3]
  koff: 0.043 s⁻¹
  kon: 140000 M⁻¹ s⁻¹
Human originated HIgG1 [4]
  koff: 0.02 s⁻¹
  kon: 230000 M⁻¹ s⁻¹
BSA
  binding result: no binding
[5]
  Kd: > 20000 nM
